Results on six sequences are retold here after the supplement of paper PMC11246515.

± gives the standard deviation of the averaged measurements.

The nature of this data set: total protein half-life in vivo (active degradation + dilution); higher = more stable protein.
[1] abbreviates: E. coli NCM3722 delta-clpP delta-lon delta-hslV, growth: N-lim chemostat, doubling time 6 h.
[2] abbreviates: E. coli NCM3722 delta-clpP, growth: N-lim chemostat, doubling time 6 h.
Where [3] appears, read: E. coli NCM3722 delta-hslV, growth: N-lim chemostat, doubling time 6 h.
Where [4] appears, read: E. coli NCM3722 delta-lon, growth: N-lim chemostat, doubling time 6 h.
Where [5] appears, read: E. coli NCM3722 delta-smpB, growth: N-lim chemostat, doubling time 6 h.
[6] abbreviates: wild type E. coli NCM3722, growth: C-lim chemostat, doubling time 3 h.
Where [7] appears, read: wild type E. coli NCM3722, growth: C-lim chemostat, doubling time 6 h.
The mark [8] stands for this setting: wild type E. coli NCM3722, growth: C-lim chemostat, doubling time 12 h.
Where [9] appears, read: wild type E. coli NCM3722, growth: N-lim chemostat, doubling time 6 h.
[10] abbreviates: wild type E. coli NCM3722, growth: N-lim chemostat, doubling time 12 h.
Setting [11] is: wild type E. coli NCM3722, growth: P-lim chemostat, doubling time 6 h.
The mark [12] stands for this setting: wild type E. coli NCM3722, growth: P-lim chemostat, doubling time 12 h.

As for “MFQDNPLLAQLKQQLHSQTPRAEGVVKATEKGFGFLEVDAQKSYFIPPPQMKKVMHGDRIIAVIHSEKERESAEPEELVEPFLTRFVGKVQGKNDRLAIVPDHPLLKDAIPCRAARGLNHEFKEGDWAVAEMRRHPLKGDRSFYAELTQYITFGDDHFVPWWVTLARHNLEKEAPDGVATEMLDEGLVREDLTALDFVTIDSASTEDMDDALFAKALPDDKLQLIVAIADPTAWIAEGSKLDKAAKIRAFTNYLPGFNIPMLPRELSDDLCSLRANEVRPVLACRMTLSADGTIEDNIEFFAATIESKAKLVYDQVSDWLENTGDWQPESEAIAEQVRLLAQICQRRGEWRHNHALVFKDRPDYRFILGEKGEVLDIVAEPRRIANRIVEEAMIAANICAARVLRDKLGFGIYNVHMGFDPANADALAALLKTHGLHVDAEEVLTLDGFCKLRRELDAQPTGFLDSRIRRFQSFAEISTEPGPHFGLGLEAYATWTSPIRKYGDMINHRLLKAVIKGETATRPQDEITVQMAERRRLNRMAERDVGDWLYARFLKDKAGTDTRFAAEIVDISRGGMRVRLVDNGAIAFIPAPFLHAVRDELVCSQENGTVQIKGETVYKVTDVIDVTIAEVRMETRSIIARPVA”, the “total protein half-life in vivo” value turned out to be 6.36 ± 1.1 h under setting [1]; 5.31 ± 0.54 h under setting [2]; 4.41 ± 0.31 h under setting [3]; 4.57 ± 0.42 h under setting [4]; 3.92 ± 0.095 h under setting [5]; 2.74 ± 0.38 h under setting [6]. In addition, the “total protein half-life in vivo” value stood at 5.8 ± 0.41 h under setting [7]; 10 ± 3.6 h under setting [8]; 4.3 ± 0.15 h under setting [9]; 7.65 ± 0.77 h under setting [10]; 4.66 ± 0.14 h under setting [11]; 8.07 ± 0.19 h under setting [12].

With “MLKTISPLISPELLKVLAEMGHGDEIIFSDAHFPAHSMGPQVIRADGLLVSDLLQAIIPLFELDSYAPPLVMMAAVEGDTLDPEVERRYRNALSLQAPCPDIIRINRFAFYERAQKAFAIVITGERAKYGNILLKKGVTP [P0AEN8]”, the “total protein half-life in vivo” value is, setting by setting: under setting [1], 6.09 ± 0.27 h; under setting [2], 6.25 ± 0.67 h; under setting [3], 6.67 ± 1.6 h; under setting [5], 5.51 ± 0.094 h; under setting [6], 3.05 ± 0.092 h; under setting [7], 6.7 ± 0.48 h. The “total protein half-life in vivo” value by setting is: under setting [8], 13.2 ± 0.83 h; under setting [9], 5.36 ± 0.38 h; under setting [10], 10.4 ± 1.1 h; under setting [11], 5.89 ± 0.63 h; under setting [12], 12.3 ± 0.71 h.

With “MTLLALGINHKTAPVSLRERVSFSPDKLDQALDSLLAQPMVQGGVVLSTCNRTELYLSVEEQDNLQEALIRWLCDYHNLNEEDLRKSLYWHQDNDAVSHLMRVASGLDSLVLGEPQILGQVKKAFADSQKGHMKASELERMFQKSFSVAKRVRTETDIGASAVSVAFAACTLARQIFESLSTVTVLLVGAGETIELVARHLREHKVQKMIIANRTRERAQILADEVGAEVIALSDIDERLREADIIISSTASPLPIIGKGMVERALKSRRNQPMLLVDIAVPRDVEPEVGKLANAYLYSVDDLQSIISHNLAQRKAAAVEAETIVAQETSEFMAWLRAQSASETIREYRSQAEQVRDELTAKALAALEQGGDAQAIMQDLAWKLTNRLIHAPTKSLQQAARDGDNERLNILRDSLGLE [P0A6X1]”, the “total protein half-life in vivo” value is 4.33 ± 0.069 h under setting [1]; 2.95 ± 0.26 h under setting [2]; 1.55 h under setting [3]; 1.59 ± 0.083 h under setting [4]; 1.51 ± 0.25 h under setting [5]; 1.03 h under setting [6]. Besides, the “total protein half-life in vivo” value worked out at 1.84 ± 0.15 h under setting [7]; 2.76 ± 0.68 h under setting [8]; 1.35 ± 0.31 h under setting [9]; 2.08 h under setting [10]; 1.29 ± 0.43 h under setting [11]; 1.9 h under setting [12].

“MVTLYGIKNCDTIKKARRWLEANNIDYRFHDYRVDGLDSELLNDFINELGWEALLNTRGTTWRKLDETTRNKITDAASAAALMTEMPAIIKRPLLCVPGKPMLLGFSDSSYQQFFHEV”: the “total protein half-life in vivo” value turned out to be 5.94 ± 0.23 h under setting [1]; 5.95 ± 0.25 h under setting [2]; 5.87 ± 1.3 h under setting [5]; 3.07 ± 0.16 h under setting [6]; 6.1 ± 0.65 h under setting [7]; 9.79 ± 1.3 h under setting [8]. Further, the “total protein half-life in vivo” value runs as follows: under setting [9], more than 8 h; under setting [10], 8.47 h; under setting [11], 6.07 h; under setting [12], 11.3 ± 0.18 h.

Turning to “MKPYQRQFIEFALSKQVLKFGEFTLKSGRKSPYFFNAGLFNTGRDLALLGRFYAEALVDSGIEFDLLFGPAYKGIPIATTTAVALAEHHDLDLPYCFNRKEAKDHGEGGNLVGSALQGRVMLVDDVITAGTAIRESMEIIQANGATLAGVLISLDRQERGRGEISAIQEVERDYNCKVISIITLKDLIAYLEEKPEMAEHLAAVKAYREEFGV [P0A7E3]”, the “total protein half-life in vivo” value is, setting by setting: under setting [1], 4.07 ± 0.75 h; under setting [2], 3.84 ± 0.28 h; under setting [3], 3.61 h; under setting [4], 4.35 ± 0.61 h; under setting [5], 3.83 ± 0.08 h; under setting [6], 2.87 ± 0.3 h. Also, the “total protein half-life in vivo” value reads like this: under setting [7], 5.31 ± 0.18 h; under setting [8], 9.3 ± 3.5 h; under setting [9], 3.93 ± 0.33 h; under setting [10], 6.396 ± 0.051 h; under setting [11], 5.62 ± 0.25 h; under setting [12], 10.7 ± 0.39 h.

With “MKWDWIFFDADETLFTFDSFTGLQRMFLDYSVTFTAEDFQDYQAVNKPLWVDYQNGAITSLQLQHGRFESWAERLNVEPGKLNEAFINAMAEICTPLPGAVSLLNAIRGNAKIGIITNGFSALQQVRLERTGLRDYFDLLVISEEVGVAKPNKKIFDYALEQAGNPDRSRVLMVGDTAESDILGGINAGLATCWLNAHHREQPEGIAPTWTVSSLHELEQLLCKH [P0A8Y1]”, the “total protein half-life in vivo” value was determined as 5.28 ± 0.098 h under setting [1]; 0.513 h under setting [2]; 0.534 h under setting [4]; 0.471 ± 0.024 h under setting [5]; 0.631 ± 0.016 h under setting [6]; 0.671 h under setting [7]. For the same sequence, the “total protein half-life in vivo” value came out at 2.97 h under setting [8], 1.11 h under setting [9], 1.51 h under setting [10] and 0.949 ± 0.33 h under setting [11].
